B1: GFRNNNMYRF (peptide)
peptide: GFRNNNMYRF
B2: NRLLTG (peptide)
peptide: NRLLTG
B3: ANNNMYRR (peptide)
peptide: ANNNMYRR
B4: NRNNTG (peptide)
peptide: NRNNTG
B5: GFRVVLMYRF (peptide)
peptide: GFRVVLMYRF
B6: ALLLMYRR (peptide)
peptide: ALLLMYRR

target: E. coli Hsp70 (DnaK) (E. coli, UniProt P0A6Y8 1-638); assay: SPR
Sequence (P0A6Y8 whole entry): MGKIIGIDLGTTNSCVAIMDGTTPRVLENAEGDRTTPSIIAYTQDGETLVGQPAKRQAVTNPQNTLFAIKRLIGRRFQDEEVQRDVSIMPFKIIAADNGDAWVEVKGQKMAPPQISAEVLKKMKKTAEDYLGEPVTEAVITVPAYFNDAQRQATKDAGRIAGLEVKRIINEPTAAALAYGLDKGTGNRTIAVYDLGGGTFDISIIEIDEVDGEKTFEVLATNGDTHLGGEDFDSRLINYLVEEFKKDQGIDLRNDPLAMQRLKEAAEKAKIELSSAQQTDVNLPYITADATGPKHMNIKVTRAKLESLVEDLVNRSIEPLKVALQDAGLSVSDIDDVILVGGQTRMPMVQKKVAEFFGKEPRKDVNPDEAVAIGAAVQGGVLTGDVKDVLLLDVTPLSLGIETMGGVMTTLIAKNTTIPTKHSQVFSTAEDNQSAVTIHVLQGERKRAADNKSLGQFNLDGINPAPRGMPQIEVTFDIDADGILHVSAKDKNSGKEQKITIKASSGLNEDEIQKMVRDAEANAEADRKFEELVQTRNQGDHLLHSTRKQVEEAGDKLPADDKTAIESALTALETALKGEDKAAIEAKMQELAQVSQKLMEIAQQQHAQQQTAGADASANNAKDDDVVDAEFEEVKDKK

Row | Binder | binding result
1 | B1 | binds
2 | B2 | binds
3 | B3 | binds
4 | B4 | binds
5 | B5 | binds
6 | B6 | binds

— article doi:10.1101/2020.03.09.984104 (bioRxiv, 2020)
